From IntAct's records for PubMed 31515488

B1: EKC/KEOPS complex subunit TP53RK (Homo sapiens), Q96S44 (parent)
chain: MAAARATTPADGEEPAPEAEALAAARERSSRFLSGLELVKQGAEARVFRGRFQGRAAVIKHRFPKGYRHPALEARLGRRRTVQEARALLRCRRAGISAPVVFFVDYASNCLYMEEIEGSVTVRDYIQSTMETEKTPQGLSNLAKTIGQVLARMHDEDLIHGDLTTSNMLLKPPLEQLNIVLIDFGLSFISALPEDKGVDLYVLEKAFLSTHPNTETVFEAFLKSYSTSSKKARPVLKKLDEVRLRGRKRSMVG
B2: Notch homolog 2 N-terminal-like protein A (Homo sapiens), Q7Z3S9 (parent)
chain: MCVTYHNGTGYCKCPEGFLGEYCQHRDPCEKNRCQNGGTCVAQAMLGKATCRCASGFTGEDCQYSTSHPCFVSRPCLNGGTCHMLSRDTYECTCQVGFTGKECQWTDACLSHPCANGSTCTTVANQFSCKCLTGFTGQKCETDVNECDIPGHCQHGGTCLNLPGSYQCQCLQGFTGQYCDSLYVPCAPSPCVNGGTCRQTGDFTFECNCLPETVRRGTELWERDREVWNGKEHDEN
partner: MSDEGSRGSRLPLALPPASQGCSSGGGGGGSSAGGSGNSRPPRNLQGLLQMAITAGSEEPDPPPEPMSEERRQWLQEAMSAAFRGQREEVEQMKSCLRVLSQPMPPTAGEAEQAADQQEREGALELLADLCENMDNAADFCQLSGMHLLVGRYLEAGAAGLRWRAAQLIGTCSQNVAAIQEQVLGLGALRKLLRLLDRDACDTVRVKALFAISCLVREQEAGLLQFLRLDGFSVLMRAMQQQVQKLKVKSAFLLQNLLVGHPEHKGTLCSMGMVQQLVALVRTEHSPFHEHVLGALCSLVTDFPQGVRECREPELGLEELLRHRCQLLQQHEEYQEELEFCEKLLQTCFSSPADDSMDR
B3: Tuftelin-interacting protein 11 (Homo sapiens), Q9UBB9 (parent)
chain: MSLSHLYRDGEGRIDDDDDERENFEITDWDLQNEFNPNRQRHWQTKEEATYGVWAERDSDDERPSFGGKRARDYSAPVNFISAGLKKGAAEEAELEDSDDEEKPVKQDDFPKDFGPRKLKTGGNFKPSQKGFAGGTKSFMDFGSWERHTKGIGQKLLQKMGYVPGRGLGKNAQGIINPIEAKQRKGKGAVGAYGSERTTQSMQDFPVVDSEEEAEEEFQKELSQWRKDPSGSKKKPKYSYKTVEELKAKGRISKKLTAPQKELSQVKVIDMTGREQKVYYSYSQISHKHNVPDDGLPLQSQQLPQSGKEAKAPGFALPELEHNLQLLIDLTEQEIIQNDRQLQYERDMVVNLFHELEKMTEVLDHEERVISNLSKVLEMVEECERRMQPDCSNPLTLDECARIFETLQDKYYEEYRMSDRVDLAVAIVYPLMKEYFKEWDPLKDCTYGTEIISKWKSLLENDQLLSHGGQDLSADAFHRLIWEVWMPFVRNIVTQWQPRNCDPMVDFLDSWVHIIPVWILDNILDQLIFPKLQKEVENWNPLTDTVPIHSWIHPWLPLMQARLEPLYSPIRSKLSSALQKWHPSDSSAKLILQPWKDVFTPGSWEAFMVKNIVPKLGMCLGELVINPHQQHMDAFYWVIDWEGMISVSSLVGLLEKHFFPKWLQVLCSWLSNSPNYEEITKWYLGWKSMFSDQVLAHPSVKDKFNEALDIMNRAVSSNVGAYMQPGARENIAYLTHTERRKDFQYEAMQERREAENMAQRGIGVAASSVPMNFKDLIETKAEEHNIVFMPVIGKRHEGKQLYTFGRIVIYIDRGVVFVQGEKTWVPTSLQSLIDMAK
partner: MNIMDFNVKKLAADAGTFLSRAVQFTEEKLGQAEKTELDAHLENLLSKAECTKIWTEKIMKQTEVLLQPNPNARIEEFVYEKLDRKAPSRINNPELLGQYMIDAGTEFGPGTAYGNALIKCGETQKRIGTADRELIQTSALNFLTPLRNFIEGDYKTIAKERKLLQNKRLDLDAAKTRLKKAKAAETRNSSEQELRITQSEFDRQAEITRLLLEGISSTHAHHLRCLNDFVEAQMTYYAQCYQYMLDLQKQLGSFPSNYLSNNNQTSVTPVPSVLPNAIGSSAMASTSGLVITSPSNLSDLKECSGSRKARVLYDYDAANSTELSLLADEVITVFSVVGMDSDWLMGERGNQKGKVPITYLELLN
B4: AN1-type zinc finger protein 2B (Homo sapiens), Q8WV99 (parent)
chain: MEFPDLGAHCSEPSCQRLDFLPLKCDACSGIFCADHVAYAQHHCGSAYQKDIQVPVCPLCNVPVPVARGEPPDRAVGEHIDRDCRSDPAQQKRKIFTNKCERAGCRQREMMKLTCERCSRNFCIKHRHPLDHDCSGEGHPTSRAGLAAISRAQAVASTSTVPSPSQTMPSCTSPSRATTRSPSWTAPPVIALQNGLSEDEALQRALEMSLAETKPQVPSCQEEEDLALAQALSASEAEYQRQQAQSRSSKPSNCSLC
partner: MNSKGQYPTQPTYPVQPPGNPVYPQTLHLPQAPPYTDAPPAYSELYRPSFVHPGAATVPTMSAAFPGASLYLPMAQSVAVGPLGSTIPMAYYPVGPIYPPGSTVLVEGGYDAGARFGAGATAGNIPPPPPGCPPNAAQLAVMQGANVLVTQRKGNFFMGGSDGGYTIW
B5: Tuftelin-interacting protein 11 (Homo sapiens), Q9UBB9 (parent)
chain: B3 chain
partner: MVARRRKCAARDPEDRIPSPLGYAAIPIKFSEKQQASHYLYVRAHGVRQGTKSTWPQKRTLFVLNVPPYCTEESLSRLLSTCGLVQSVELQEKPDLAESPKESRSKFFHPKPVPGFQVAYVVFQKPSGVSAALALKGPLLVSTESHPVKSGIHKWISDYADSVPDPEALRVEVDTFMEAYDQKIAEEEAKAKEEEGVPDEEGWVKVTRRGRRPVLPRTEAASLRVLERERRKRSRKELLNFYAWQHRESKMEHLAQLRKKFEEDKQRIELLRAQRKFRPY
B6: Zinc finger CCCH-type with G patch domain-containing protein (Homo sapiens), Q8N5A5 (parent)
chain: MDEESLESALQTYRAQLQQVELALGAGLDSSEQADLRQLQGDLKELIELTEASLVSVRKSSLLAALDEERPGRQEDAEYQAFREAITEAVEAPAAARGSGSETVPKAEAGPESAAGGQEEEEGEDEEELSGTKVSAPYYSSWGTLEYHNAMVVGTEEAEDGSAGVRVLYLYPTHKSLKPCPFFLEGKCRFKENCRFSHGQVVSLDELRPFQDPDLSSLQAGSACLAKHQDGLWHAARITDVDNGYYTVKFDSLLLREAVVEGDGILPPLRTEATESDSDSDGTGDSSYARVVGSDAVDSAQSSALCPSLAVVGSDAVDSGTCSSAFAGWEVHTRGIGSRLLTKMGYEFGKGLGRHAEGRVEPIHAVVLPRGKSLDQCVETLQKQTRVGKAGTNKPPRCRGRGARPGGRPAPRNVFDFLNEKLQGQAPGALEAGAAPAGRRSKDMYHASKSAKRALSLRLFQTEEKIERTQRDIRSIQEALARNAGRHSVASAQLQEKLAGAQRQLGQLRAQEAGLQQEQRKADTHKKMTEF
partner: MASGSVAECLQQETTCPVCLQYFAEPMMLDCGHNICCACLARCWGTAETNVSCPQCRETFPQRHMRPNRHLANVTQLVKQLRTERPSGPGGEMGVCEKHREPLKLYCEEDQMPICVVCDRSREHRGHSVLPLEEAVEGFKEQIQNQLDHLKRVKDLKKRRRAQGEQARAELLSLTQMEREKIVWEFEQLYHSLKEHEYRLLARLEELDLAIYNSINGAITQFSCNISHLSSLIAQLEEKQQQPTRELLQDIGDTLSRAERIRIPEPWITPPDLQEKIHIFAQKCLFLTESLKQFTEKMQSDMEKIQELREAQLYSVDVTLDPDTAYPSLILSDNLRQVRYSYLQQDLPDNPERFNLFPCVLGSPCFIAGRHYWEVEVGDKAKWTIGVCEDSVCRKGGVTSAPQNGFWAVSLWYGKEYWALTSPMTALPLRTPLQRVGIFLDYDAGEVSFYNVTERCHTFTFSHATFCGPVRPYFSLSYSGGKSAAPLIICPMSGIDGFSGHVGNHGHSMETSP
B7: Homeobox protein VENTX (Homo sapiens), O95231 (parent)
chain: MRLSSSPPRGPQQLSSFGSVDWLSQSSCSGPTHTPRPADFSLGSLPGPGQTSGAREPPQAVSIKEAAGSSNLPAPERTMAGLSKEPNTLRAPRVRTAFTMEQVRTLEGVFQHHQYLSPLERKRLAREMQLSEVQIKTWFQNRRMKHKRQMQDPQLHSPFSGSLHAPPAFYSTSSGLANGLQLLCPWAPLSGPQALMLPPGSFWGLCQVAQEALASAGASCCGQPLASHPPTPGRPSLGPALSTGPRGLCAMPQTGDAF
partner: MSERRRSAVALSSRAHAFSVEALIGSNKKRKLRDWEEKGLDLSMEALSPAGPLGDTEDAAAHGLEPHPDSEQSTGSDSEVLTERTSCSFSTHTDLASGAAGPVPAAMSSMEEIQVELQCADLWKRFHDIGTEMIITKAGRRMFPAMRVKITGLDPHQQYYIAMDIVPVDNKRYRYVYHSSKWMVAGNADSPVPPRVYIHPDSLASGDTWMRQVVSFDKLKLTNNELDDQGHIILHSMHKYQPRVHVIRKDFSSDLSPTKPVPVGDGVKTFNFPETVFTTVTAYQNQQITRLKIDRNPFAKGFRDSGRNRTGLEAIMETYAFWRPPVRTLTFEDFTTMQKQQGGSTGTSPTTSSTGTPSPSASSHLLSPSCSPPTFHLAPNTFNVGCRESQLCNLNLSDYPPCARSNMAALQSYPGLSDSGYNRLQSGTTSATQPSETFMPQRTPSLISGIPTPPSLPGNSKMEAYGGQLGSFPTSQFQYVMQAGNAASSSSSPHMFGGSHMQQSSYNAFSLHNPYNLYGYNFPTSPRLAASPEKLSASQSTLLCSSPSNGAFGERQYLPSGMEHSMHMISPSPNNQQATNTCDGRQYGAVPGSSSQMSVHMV

Variants of: B1
Settings: with ccdb1_human CCNDBP1, O95273
Chain of ccdb1_human CCNDBP1, O95273 (O95273 whole entry): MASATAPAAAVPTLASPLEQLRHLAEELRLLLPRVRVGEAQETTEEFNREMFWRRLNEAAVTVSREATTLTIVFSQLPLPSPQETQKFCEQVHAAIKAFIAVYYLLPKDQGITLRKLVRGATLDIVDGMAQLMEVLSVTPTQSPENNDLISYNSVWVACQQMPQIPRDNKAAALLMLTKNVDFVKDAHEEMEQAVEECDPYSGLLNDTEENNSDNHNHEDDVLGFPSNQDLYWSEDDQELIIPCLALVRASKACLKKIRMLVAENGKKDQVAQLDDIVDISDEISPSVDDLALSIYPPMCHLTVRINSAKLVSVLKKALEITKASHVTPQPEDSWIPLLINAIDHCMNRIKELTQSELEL

| Variant | effect of a mutation on the interaction |
| --- | --- |
| T129A | with no effect |
| R123Q | disrupting interaction strength |
| T8M | with no effect |

Variants of: B2
Settings: with hpbp1_human HSPBP1, Q9NZL4

| Variant | effect of a mutation on the interaction |
| --- | --- |
| R74Q | with no effect |
| A115T | with no effect |

Variants of: B3
Settings: with shlb1_human SH3GLB1, Q9Y371

| Variant | effect of a mutation on the interaction |
| --- | --- |
| R8Q | with no effect |
| S688L | with no effect |

Variants of: B4
Settings: with dazp2_human DAZAP2, Q15038

| Variant | effect of a mutation on the interaction |
| --- | --- |
| P71H | with no effect |

Variants of: B5
Settings: with rrp7a_human RRP7A

| Variant | effect of a mutation on the interaction |
| --- | --- |
| M140V | with no effect |

Variants of: B6
Settings: with tri27_human TRIM27, P14373

| Variant | effect of a mutation on the interaction |
| --- | --- |
| S61R | with no effect |

Variants of: B7
Settings: with tbx15_human TBX15, Q96SF7

| Variant | effect of a mutation on the interaction |
| --- | --- |
| L42P | with no effect |
| A226E | with no effect |
